3 molecules from paper PMC11883000, “Structure-function relationship of ASH1L and histone H3K36 and H3K4 methylation” (Nature Communications, 2025) can be followed below.

The target of test [1] is T1, ASH1L tandem bromodomain-PHD finger (aa 2436-2638) (human, UniProt Q9NR48 2436-2638).
T1 construct: ASH1L, human, bromodomain and PHD finger, aa 2436-2638 (NMR structure sample); 13C/15N-labelled and 75% deuterated; The protein expression section lists ASH1L_(BD-PHD) as aa 2430-2629 (GST fusion, E. coli); the NMR structure section gives aa 2436-2638; also called ASH1L_(BD-PHD)
The test is described as follows: NMR solution structure; 0.5 mM ASH1L_(BD-PHD) with H3K4me2 peptide (aa 1-15); 298 K; 200 mM sodium phosphate pH 6.3, 5 mM DTT. Particulars: both partners purified.

Test [2] has as its target T2, ASH1L plant homeodomain (PHD) finger, wild type (aa 2579-2629) (human, UniProt Q9NR48 2579-2629).
T2 construct: ASH1L, human, PHD finger, aa 2579-2629; 15N-labelled for NMR; also called ASH1LPHD; ASH1L PHD; source: E. coli BL21 or Rosetta2 (DE3) pLysS, purified (glutathione agarose, SEC)
The test is described as follows: NMR titration; 1H,15N HSQC chemical shift perturbation; unlabelled ligand (histone peptide or ASH1LSET) added to 0.1-0.2 mM 15N-labelled protein; 298 K; 25 mM Tris pH 7.5, 150 mM NaCl, 5 mM DTT. The following applies: both partners purified.

Usually Kd stands for the free concentration of one partner at which half of the binding sites on the other are occupied at equilibrium, for simple one-to-one binding.

Ends that are not written are not given here. Me2 = dimethylation (dimethyl-lysine)

B1: histone H3K4me2 peptide (aa 1-15 of H3) (peptide, UniProt P68431 2-16, looked up)
peptide: ARTK(Me2)QTARKSTGGKA
notes: histone H3, residues 1-15
For B1, the binding result in test [1] is “binds”.

B2: histone H3K4me1 peptide (aa 1-12 of H3) (peptide, UniProt P68431 2-13, looked up)
peptide: ARTK(Me)QTARKSTG
notes: histone H3, residues 1-12
As to B2, the Kd in test [2] came out at 119 µM.

B3: histone H3K4me0 (unmodified) peptide (aa 1-12 of H3) (peptide, UniProt P68431 2-13, looked up)
peptide: ARTKQTARKSTG
notes: histone H3, residues 1-12
Regarding B3, the Kd in test [2] is 1900 µM.
